These results are taken from paper PMC9293779, “Elucidation of binding preferences of YEATS domains to site-specific acetylated nucleosome core particles” (The Journal of Biological Chemistry, 2022).

Ends that are not written are not given here.

Holding throughout (details): both partners purified
Assay [1] has as its target T1, AF9-YEATS domain (residues 1–138) for X-ray analysis and ITC (human, UniProt P42568 1-138).
T1 construct: AF9 YEATS domain, human, residues 1–138; cloned in the pCR2.1 vector encoding GST and the polyhistidine tag; source: purified (HisTrap HP, Superdex 200)
T1 sequence (looked up): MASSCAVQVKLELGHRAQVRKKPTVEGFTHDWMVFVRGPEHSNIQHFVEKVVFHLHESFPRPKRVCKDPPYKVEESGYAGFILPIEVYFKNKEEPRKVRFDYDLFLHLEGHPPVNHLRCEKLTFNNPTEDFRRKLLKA
The assay is described as follows: ITC; protein (100 μM) in the cell, peptide (1 mM) in the syringe; 15 °C; 20 mM Tris-HCl pH 7.6, 500 mM NaCl; single binding site model.

The target of assay [2] is T2, GST-fused AF9-YEATS domain (peptide array) (human, UniProt P42568 1-138).
T2 construct: GST follows the N-terminal polyhistidine tag; source: purified (HisTrap HP, Superdex 200); not shown: GST, N-terminal, kept
T2 sequence (looked up): T1 sequence (looked up)
The assay is described as follows: peptide or protein array; MODified Histone Peptide Array (Active Motif); 10 μM GST-fused YEATS domain, 4 °C overnight; 50 mM Tris-HCl pH 7.6, 250 mM NaCl, 0.1% NP-40, 10% glycerol; detected with anti-GST.

Assay [3] addresses T3, GST-fused ENL-YEATS domain (peptide array) (human, UniProt Q03111 1-138).
T3 construct: GST follows the N-terminal polyhistidine tag; source: purified (HisTrap HP, Superdex 200); not shown: GST, N-terminal, kept
T3 sequence (looked up): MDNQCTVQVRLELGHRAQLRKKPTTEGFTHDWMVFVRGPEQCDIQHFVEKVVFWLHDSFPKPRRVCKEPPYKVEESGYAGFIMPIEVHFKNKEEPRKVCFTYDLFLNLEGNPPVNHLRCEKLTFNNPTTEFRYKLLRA
Described as above.

Assay [4] deals with T1, AF9-YEATS domain (residues 1–138) for …. Kind of assay: crystal structure; sitting-drop vapor diffusion at 20 °C; AF9-YEATS with diacetylated H4 peptide; space group P1, two AF9-YEATS molecules in the asymmetric unit.

B1: K4/K9-diacetylated H3 (1–19) peptide (peptide, UniProt P68431 2-20, looked up)
peptide: ARTK(Ac)QTARK(Ac)STGGKAPRKQ
notes: histone H3, residues 1–19
As to B1, the Kd (in general, the constant that tells how readily two partners part at equilibrium) in assay [1] was determined as 5.8 µM.

B2: H4 (1–19) tail peptide diacetylated at K5/K8 (MODified Histone Peptide Array) (peptide, UniProt P62805 2-20, looked up)
peptide: SGRGKGGKGLGKGGAKRHR
modifications: acetyl-lysine at K5 and K8
notes: histone H4, residues 1–19; source: bought: Active Motif MODified Histone Peptide Array
On to B2, for which the binding result in assay [2] and in assay [3] was “binds” each time.

B3: H4 (4–16) K8ac/K12ac peptide (peptide, UniProt P62805 5-17, looked up)
peptide: GKGGK(Ac)GLGK(Ac)GGAK
notes: histone H4, residues 4–16; also called H4K8ac/K12ac peptide; K8/K12-diacetylated H4 peptide
For B3, the binding result in assay [4] is listed as “binds”.

B4: H4 (1–12) K5ac/K8ac peptide (peptide, UniProt P62805 2-13, looked up)
peptide: SGRGK(Ac)GGK(Ac)GLGK
notes: histone H4, residues 1–12; also called H4K5ac/K8ac peptide; K5/K8-diacetylated H4 peptide
On to B4, for which the binding result in assay [4] was “binds”.

B5: K9/K14-diacetylated H3 (1–19) peptide (peptide, UniProt P68431 2-20, looked up)
peptide: ARTKQTARKSTGGKAPRKQ
modifications: acetyl-lysine at K9 and K14
notes: histone H3, residues 1–19
Turning to B5, in assay [1], the affinity, expressed as Kd, was 8.5 µM.

B6: H4 (1–19) tail peptide tetra-acetylated at K5/K8/K12/K16 (MODified Histone Peptide Array) (peptide, UniProt P62805 2-20, looked up)
peptide: SGRGKGGKGLGKGGAKRHR
modifications: acetyl-lysine at K5, K8, K12 and K16
notes: as for B2
Turning to B6, the binding result in assay [2] and in assay [3] was “binds” each time.
